As usually defined, the kcat is the number of substrate molecules converted per active site and unit of time at saturation. A word on the Ki: it is a measure of affinity in units of concentration, obtained from inhibition or displacement. A word on the Km: it is the substrate concentration at which the rate is half of its maximum.

One series concerns the target CP4 EPSPS (Agrobacterium sp., UniProt Q9R4E4). As to the kind of experiment: substrate saturation kinetic analysis (kcat, Km, Ki). The series is classed as biochemical, Agrobacterium sp. strain CP4. As to the method:
EPSPS activity was determined by quantifying the phosphate generated from the EPSPS reaction. Release of inorganic phosphate was coupled to its reaction with 2-amino-6-mercapto-7-methylpurine ribonucleoside (MESG), catalyzed by purine nucleoside phosphorylase, according to previously described protocols. To determine the kcat gly, enzyme preparations were normalized to 0.1 mg/ml and four- to six-microliter aliquots of normalized enzyme were added to the wells of a low UV-absorbing 96-well assay plate (Greiner UV-Star). Reactions were started with the addition of 2×147 μl of reaction mixture containing 25 mM Hepes, pH 7.0, 100 mM KCl, 5% ethylene glycol, 30 μM each of PEP and S3P, 0.15 mM MESG, 1.5 U/ml purine nucleoside phosphorylase (Sigma N8264) and 1 mM glyphosate. Absorbance was monitored at 4 sec intervals for 50 sec with a Spectramax plate reader (Molecular Devices). […] Division by the enzyme concentration (0.04 to 0.1 uM, depending on activity) yields “kcat gly” in units of min^−1.
Combinatorial shuffling, maize native EPSPS—The mutations discovered were used to construct a combinatorial library designed to explore combinations of the desensitizing mutations in novel sequence contexts provided by the newly identified neutral mutations. Note that the amino acid position numbering in this Example 10 refers to the relative position of native maize EPSPS without the N-terminal Met. Therefore, G101A in this Example would be G102A in reference to SEQ ID NO: 1, wherein the maize EPSPS sequence has a Met added at the N-terminal. The diversity used was the same with the addition of G101A, T102 (IALGV) and P106(WA). In all, 43 substitutions at 29 positions were selected. The library was synthesized entirely from oligonucleotides, using the known technique of synthetic shuffling and was termed NatFS (Native, fully synthetic). The vector DNA of the library was transformed into the BL21(DE3) Tuner-AroA knockout strain and the cells were plated onto M9 medium containing either 30 mM glyphosate and 30 μM of the lac operon inducer isopropyl β-D-1-thiogalactopyranoside (IPTG) or 50 mM glyphosate and no IPTG. The 184 colonies that grew on either plate were picked and subjected to a second tier of screening in which EPSPS proteins were purified and activity measured at high (200 μM) and low (50 μM) PEP and S3P, with or without 10 μM glyphosate. Selected variants were subjected to substrate saturation kinetic analysis.

The target of series [1] is EPSPS from Agrobacterium sp. strain CP4 (Agrobacterium sp., UniProt Q9R4E4). As to the kind of experiment: kgly: enzyme turnover at 30 μM PEP and S3P, 1 mM glyphosate, CP4 EPSPS. The series is classed as biochemical. The source says:
A customized parameter for predicting performance in the treated plant that would be a more accurate representation than kcat/Km*Ki. […] However, kcat/Km*Ki may be inadequate for predicting the reaction velocity under the conditions of the application (plants sprayed with glyphosate) because it may neglect concentrations of substrate and inhibitor, factors that are not intrinsic to the enzyme, but on which the reaction rate depends. Therefore, libraries derived from C1 on in FIG. 2 were evaluated with a single rate measurement designed to take all factors in the rate equation for competitive inhibition into account. […] Glyphosate was included at 1 mM, a concentration attainable in tissues, especially meristems, receiving metabolite flow from treated leaves. The pH (7.0), ionic strength (100 mM KCl) and co-solvent concentration (5% ethylene glycol) were also intended to mimic in vivo conditions. The unit for the parameter is reaction rate (μM·min^−1) per enzyme concentration (μM), or min^−1, describing the enzyme turnover under application conditions, which we abbreviate as “kgly”. Although individual kinetic parameters for key variants were obtained, kgly was adopted a parameter needed both for medium throughput screening and for ultimate evaluation of fitness.

Read-outs that look alike come from different tables or passages of the source.

B1: CP4 EPSPS: Class II EPSPS from Agrobacterium sp. strain CP4 (protein, UniProt Q9R4E4 1-455, looked up)
3-phosphoshikimate …: MSHGASSRPATARKSSGLSGTVRIPGDKSISHRSFMFGGLASGETRITGLLEGEDVINTGKAMQAMGARIRKEGDTWIIDGVGNGGLLAPEAPLDFGNAATGCRLTMGLVGVYDFDSTFIGDASLTKRPMGRVLNPLREMGVQVKSEDGDRLPVTLRGPKTPTPITYRVPMASAQVKSAVLLAGLNTPGITTVIEPIMTRDHTEKMLQGFGANLTVETDADGVRTIRLEGRGKLTGQVIDVPGDPSSTAFPLVAALLVPGSDVTILNVLMNPTRTGLILTLQEMGADIEVINPRLAGGEDVADLRVRSSTLKGVTVPEDRAPSMIDEYPILAVAAAFAEGATVMNGLEELRVKESDRLSAVANGLKLNGVDCDEGETSLVVRGRPDGKGLGNASGAAVATHLDHRIAMSFLVMGLVSENPVTVDDATMIATSFPEFMDLMAGLGAKIELSDTKAA
In the case of B1, the kcat with CP4 EPSPS (CP4 EPSPS) came to 6.85 ± 0.083 s⁻¹. Moreover, the inhibition constant Ki with CP4 EPSPS (Ki for glyphosate) was found to be 1970 ± 276 µM. The Km with CP4 EPSPS (apparent Km, PEP present at 10 times its Km, read-out: Km S3P) was determined as 5.2 ± 0.5 µM; with CP4 EPSPS (apparent Km, S3P present at 10 times its Km, read-out: Km PEP) it was 15.5 ± 0.4 µM; with CP4 EPSPS (read-out: Km for PEP), 15.5 µM. Also, the “kcat/Km*Ki” value with CP4 EPSPS (calculated with Km for PEP) is on record as 52240. Also, the kgly in series [1] was determined as 176 ± 1.6 min⁻¹.

Source of the values: patent US20200392528A1, “IMPROVED PLANT EPSP SYNTHASES AND METHODS OF USE” (PIONEER HI-BRED INTERNATIONAL, INC., priority 2017, published 2020).
